Data as given in patent publication US20260193326A1 (published 2026).

Tests used:
Assay in all cases: SPR, AAV on CM5 chip;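 also: surface plasmon resonance with AAV amine-coupled to the chip as ligand, nanobodies injected as analyte over a concentration series, rate constants and affinity fitted from binding curves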
AAV5 = target: T1, AAV5
T1 construct: also called adeno-associated virus serotype 5
Method: (§1) AAV was amine-coupled to a CM5 sensor chip at a density of 500-800 response units (RU). Nanobodies were injected at seven concentrations (1-100 nM) with a flow rate of 45 μL/min, and chip regeneration was performed using glycine-HCl (pH 1.5). Binding curves at different nanobody concentrations were used to calculate kinetic parameters (Kₐ, Kd, KD) (Table 2 and FIG. 2).

AAV8 = target: T2, AAV8
T2 construct: also called adeno-associated virus serotype 8
Method: as §1

AAV9 = target: T3, AAV9
T3 construct: also called adeno-associated virus serotype 9
Method: as §1

| Binder | Kd (AAV5) | koff (AAV5) | kon (AAV5) | Kd (AAV8) | koff (AAV8) | kon (AAV8) | Kd (AAV9) | koff (AAV9) | kon (AAV9) |
| --- | --- | --- | --- | --- | --- | --- | --- | --- | --- |
| A4-047 (VHH) VHH: VQLQESGGGLVQPGGSLRLSCAASGSRFSINTMGWYRQAPGKQRELVATVTRGGSTNYAGSVKGRFTISRDNAKNTVYLQMNSLRPEDTAVYYCHVDEVRQSSWTTSNLWGQGTQVTVSS | 7.79 nM | 0.00144 s⁻¹ | 185000 M⁻¹ s⁻¹ | 0.104 nM | 2e-05 s⁻¹ | 193000 M⁻¹ s⁻¹ | 29.1 nM | 0.00147 s⁻¹ | 50500 M⁻¹ s⁻¹ |
| A4-008 (VHH) VHH: VQLQESGGGLVQAGGSLRLSCAASGRAFSINTMGWYRQAPPKQRELVATVTRGGSTNYAGSVKGRFTISRDNAKNTIYLQMNSLRPEDTAVYYCHVDEVRQSSWTTSNIWGQGTQVTVSS | 66 nM | 0.0174 s⁻¹ | 264000 M⁻¹ s⁻¹ | 523 nM | 0.00164 s⁻¹ | 3140 M⁻¹ s⁻¹ | 14.5 nM | 0.00012 s⁻¹ | 8270 M⁻¹ s⁻¹ |
| A4-002 (VHH) VHH: VQLQESGGGLVQPGGSLRLSCAASGRSFSINTMGWYRQAPGKQRELVAAVTRGGSTNYAGSVKGRFTISRDNAKNTVYLQMNSLRPEDTAVYYCHIDEVRQSSWTTSNIWGQGTQVTVSS | 138 nM | 0.00063 s⁻¹ | 4570 M⁻¹ s⁻¹ | 57.7 nM | 0.00618 s⁻¹ | 107000 M⁻¹ s⁻¹ | 232 nM | 0.011 s⁻¹ | 47500 M⁻¹ s⁻¹ |
| A4-015 (VHH) VHH: VQLQESGGGLVQPGGSLRLSCAASGSIFSINLMGWYRQAAGKQRELVATITPGGNTNYAGSVKGRFTISRDNAKNTVYLQMNSLRPEDTAVYYCHVDEVRQSSWTTSNLWGQGTQVTVSS | 2.76 nM | 0.00052 s⁻¹ | 189000 M⁻¹ s⁻¹ | 9.74 nM | 0.0017 s⁻¹ | 174000 M⁻¹ s⁻¹ | 3.39 nM | 0.00017 s⁻¹ | 50100 M⁻¹ s⁻¹ |
| A4-007 (VHH) VHH: VQLQESGGGLVQAGGSLRLSCAASGRHFSINTMGWYRQAPGKQRELVAAVTRGGSTNYAGSVKGRFTISRDNAKNTVYLQMNSLRPEDTAVYYCHIDEVRQSSWTTSNIWGQGTQVTVSS | 1260 nM | 0.0248 s⁻¹ | 19700 M⁻¹ s⁻¹ | 47.4 nM | 0.00367 s⁻¹ | 77300 M⁻¹ s⁻¹ | 6.43 nM | 0.00089 s⁻¹ | 138000 M⁻¹ s⁻¹ |
| A4-003 (VHH) VHH: VQLQESGGGLVQPGGSLRLSCVASGRSFSINTMGWYRQAPGKQRELVAAVTRGGSTNYAGSVKGRFTISRDNAKNTVYLQMNSLRPEDTAVYYCHIDEVRQSSWTTSNIWGQGTQVTVSS | 8.24 nM | 0.00019 s⁻¹ | 23100 M⁻¹ s⁻¹ | 1.2 nM | 0.000277 s⁻¹ | 232000 M⁻¹ s⁻¹ | 184 nM | 0.00152 s⁻¹ | 8240 M⁻¹ s⁻¹ |
| A4-006 (VHH) VHH: VQLQESGGGLVQPGGSLRLSCAASGRHFSINTMGWYRQAPGKQRELVAAVTRGGSTNYAGSVKGRFTISRDNAKNTVYLQMNSLRPEDTAVYYCHIDEVRQSSWTTSNIWGQGTQVTVSS | 1.78 nM | 0.00032 s⁻¹ | 179000 M⁻¹ s⁻¹ | 5.87 nM | 0.00224 s⁻¹ | 381000 M⁻¹ s⁻¹ | 192 nM | 0.0244 s⁻¹ | 127000 M⁻¹ s⁻¹ |
| A4-013 (VHH) VHH: VQLQESGGGLVQPGGSLRLSCAASGSRFSINSMGWYRQAPGKQRELVATVTRGGNTNYADSVKGRFTISRDNAKNTVYLQMNSLRPEDTAVYYCHVDEVRESSWTTSNLWGQGTQVTVSS | 7.24 nM | 0.00011 s⁻¹ | 15200 M⁻¹ s⁻¹ | 1220 nM | 0.00737 s⁻¹ | 6060 M⁻¹ s⁻¹ | 480 nM | 0.0379 s⁻¹ | 79100 M⁻¹ s⁻¹ |
| A4-022 (VHH) VHH: VQLQESGGGLVQPGGSLRLSCAASGSGFSINTMGWYRQAPGKQRELVATVTRDGSTNYADFVKGRFTISRDNAKNTVYLQMNSLRPEDTAVYYCHLDEVRESSWTTSNLWGQGTQVTVSS | 9.61 nM | 0.00152 s⁻¹ | 158000 M⁻¹ s⁻¹ | 1.19 nM | 6.2e-05 s⁻¹ | 52100 M⁻¹ s⁻¹ | 28.5 nM | 0.0001 s⁻¹ | 3510 M⁻¹ s⁻¹ |
| A4-005 (VHH) VHH: VQLQESGGGLVQAGGSLRLSCAASGRHFSINTMGWYRQAPGKQRELVAAVTRGGGTNYAGSVKGRFTISRDNAKNTVYLQMNSLRPEDTAVYYCHIDEVRQSSWTTSNIWGQGTQVTVSS | 1860 nM | 0.00193 s⁻¹ |  | 4.39 nM | 0.00197 s⁻¹ | 449000 M⁻¹ s⁻¹ | 88.5 nM | 0.021 s⁻¹ | 237000 M⁻¹ s⁻¹ |
| A4-004 (VHH) VHH: VQLQESGGGLVQPGGSLRLSCAASGSRFSINTMGWYRQAPGKQRELVAAVTRGGSTNYAGSVKGRFTISRDNAKNTVYLQMNSLRPEDTAVYYCHIDEVRQSSWTTSNIWGQGTQVTVSS | 37.5 nM | 0.00678 s⁻¹ | 181000 M⁻¹ s⁻¹ | 1.71 nM | 0.000286 s⁻¹ | 167000 M⁻¹ s⁻¹ | 4.51 nM | 0.00081 s⁻¹ | 180000 M⁻¹ s⁻¹ |
| A4-017 (VHH) VHH: VQLQESGGGLVQPGGSLRLSCAASGSIFSINLMGWYRQAPGKQRELVATITRGGNTNYAGSVKGRFTISRDNAKNTVYLQMNSLRPEDTAVYYCHVDEVRQSSWTTSNLWGQGTQVTVSS | 542 nM | 0.00164 s⁻¹ | 3030 M⁻¹ s⁻¹ | 140 nM | 0.0002 s⁻¹ | 1430 M⁻¹ s⁻¹ | 0.724 nM | 4e-05 s⁻¹ | 55300 M⁻¹ s⁻¹ |
| A4-019 (VHH) VHH: VQLQESGGGLVQAGGSLRLSCAASGSTFSINTMGWYRQAPGKQRELVATITRGGSTNYADSVKGRFTISRDNAKNTVYLQMNSLRPEDTAVYYCHVDEVRQSSWTTSNIWGQGTQVTVSS | 48.9 nM | 0.00156 s⁻¹ | 31900 M⁻¹ s⁻¹ | 6.84 nM | 0.00077 s⁻¹ | 113000 M⁻¹ s⁻¹ | 451 nM | 0.00525 s⁻¹ | 11700 M⁻¹ s⁻¹ |
| A4-009 (VHH) VHH: VQLQESGGGLAQPGGSLRLSCAASGSRFSINTMGWYRQAPGKQREFVAAVTRGGSTNYAGSVKGRFTISRDNAKNTVYLQMNTLRPEDTAVYYCHVDEVRQSSWTTSNIWGQGTQVTVSS | 141 nM | 0.00698 s⁻¹ | 49700 M⁻¹ s⁻¹ | 103 nM | 0.00219 s⁻¹ | 21400 M⁻¹ s⁻¹ | 100 nM | 0.0139 s⁻¹ | 139000 M⁻¹ s⁻¹ |
| A4-014 (VHH) VHH: VQLQESGGGLVQPGGSLRLSCAASGSRFSINSMGWYRQAPGKQRELVATVTRGGNTNYAGSVKGRFTISRDNAKNTVYLQMNSLRPEDTAVYYCHVDEVRESSWTTSNLWGQGTQVTVSS | 597 nM | 0.00529 s⁻¹ | 8860 M⁻¹ s⁻¹ | 384 nM | 0.00109 s⁻¹ | 2840 M⁻¹ s⁻¹ | 13.3 nM | 0.00085 s⁻¹ | 64000 M⁻¹ s⁻¹ |
| A4-023 (VHH) VHH: VQLQESGGGLVQPGGSLRLSCAASGSAFSINTMGWYRQAPGKQRELVASVTPGGSTNYADSVKGRFTISRDNAKNTIYLQMNSLRPEDTAVYYCHLDEVRESSWTTSNLWGQGTQVTVSS | 12.4 nM | 0.00126 s⁻¹ | 102000 M⁻¹ s⁻¹ | 143 nM | 0.00125 s⁻¹ | 8730 M⁻¹ s⁻¹ | 2.88 nM | 0.00056 s⁻¹ | 195000 M⁻¹ s⁻¹ |
| A4-016 (VHH) VHH: VQLQESGGGLVQPGGSLRLSCAASGSIFSINLMGWYRQAPGKQRELVATITPGGNTNYAGSVKGRFTISRDNAKNTVYLQMNSLRPEDTAVYYCHVDEVRQSSWTTSNLWGQGTQVTVSS | 23.9 nM | 0.00158 s⁻¹ | 66000 M⁻¹ s⁻¹ | 9.58 nM | 0.00146 s⁻¹ | 152000 M⁻¹ s⁻¹ | 131 nM | 0.00047 s⁻¹ | 3600 M⁻¹ s⁻¹ |
| A4-010 (VHH) VHH: VQLQESGGGLVQAGGSLRLSCAASGSIFSINSMGWYRQAPGKQRELVATVTRGGNTNYADSVKGRFTISRDNAKNTVYLQMNSLRPEDTAVYYCHVDEVRESSWTTSNLWGQGTQVTVSS | 267 nM | 0.00038 s⁻¹ | 1420 M⁻¹ s⁻¹ | 169 nM | 0.00249 s⁻¹ | 14700 M⁻¹ s⁻¹ | 380 nM | 0.0329 s⁻¹ | 86600 M⁻¹ s⁻¹ |
| A4-020 (VHH) VHH: VQLQESGGGLVQAGGSLRLSCAASGSTFSINTMGWYRQAPGKQRELVATITRGGNTNYADSVKGRFTISRDNAKNTVYLQMNSLRPEDTAVYYCHVDEVRQSSWTTSNLWGQGTQVTVSS | 169 nM | 0.00094 s⁻¹ | 5550 M⁻¹ s⁻¹ | 0.506 nM | 5.66e-05 s⁻¹ | 112000 M⁻¹ s⁻¹ | 73.7 nM | 0.00169 s⁻¹ | 23000 M⁻¹ s⁻¹ |
| A4-018 (VHH) VHH: VQLQESGGGLVQAGGSLRLSCAASGSRFSINTMGWYRQAPGKQREFVATVTRGGNTNYAESVKGRFTISRDNAKNTVYLQMNSLRPEDTAVYYCHVDEVRDSSWTTSNIWGQGTQVTVSS | 0.962 nM | 0.00014 s⁻¹ | 146000 M⁻¹ s⁻¹ | 34.9 nM | 0.00392 s⁻¹ | 112000 M⁻¹ s⁻¹ | 62.1 nM | 0.00745 s⁻¹ | 120000 M⁻¹ s⁻¹ |
